Results reported in publication PMC6657692 (Cellular microbiology, 2018).

T1: Aggregatibacter actinomycetemcomitans leukotoxin (LtxA) (Aggregatibacter actinomycetemcomitans …, UniProt P16462 1-1055)
T1 sequence: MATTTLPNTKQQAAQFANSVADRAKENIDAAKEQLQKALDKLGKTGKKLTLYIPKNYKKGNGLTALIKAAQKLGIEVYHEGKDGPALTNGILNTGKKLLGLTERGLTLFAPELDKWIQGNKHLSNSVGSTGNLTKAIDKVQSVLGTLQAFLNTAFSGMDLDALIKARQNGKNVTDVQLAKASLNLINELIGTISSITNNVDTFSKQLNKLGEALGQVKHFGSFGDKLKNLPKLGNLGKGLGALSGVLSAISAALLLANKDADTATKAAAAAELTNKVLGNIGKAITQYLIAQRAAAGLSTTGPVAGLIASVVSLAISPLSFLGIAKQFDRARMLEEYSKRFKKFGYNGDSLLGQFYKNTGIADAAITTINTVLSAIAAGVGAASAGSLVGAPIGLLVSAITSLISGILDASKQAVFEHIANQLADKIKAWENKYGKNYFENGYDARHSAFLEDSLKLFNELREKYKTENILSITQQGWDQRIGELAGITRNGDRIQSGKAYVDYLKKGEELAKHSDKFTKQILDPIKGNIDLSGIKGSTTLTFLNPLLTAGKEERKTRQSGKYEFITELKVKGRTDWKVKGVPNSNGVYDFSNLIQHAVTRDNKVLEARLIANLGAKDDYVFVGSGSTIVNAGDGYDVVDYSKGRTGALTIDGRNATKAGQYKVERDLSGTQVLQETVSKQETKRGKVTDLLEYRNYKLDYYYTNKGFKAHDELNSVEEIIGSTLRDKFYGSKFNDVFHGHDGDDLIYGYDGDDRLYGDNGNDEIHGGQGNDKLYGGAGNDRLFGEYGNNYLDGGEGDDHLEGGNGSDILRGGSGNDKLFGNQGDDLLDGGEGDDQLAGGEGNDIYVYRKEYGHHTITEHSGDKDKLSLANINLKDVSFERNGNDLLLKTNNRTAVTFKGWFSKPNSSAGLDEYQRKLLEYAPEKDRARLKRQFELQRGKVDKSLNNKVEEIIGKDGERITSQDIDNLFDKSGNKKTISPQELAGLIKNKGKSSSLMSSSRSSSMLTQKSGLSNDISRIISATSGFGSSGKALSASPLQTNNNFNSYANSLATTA

B1: αL cytoplasmic tail peptide (integrin αL, LFA-1 α subunit) (peptide)
peptide: CKVGFFKRNLKEKMEAGRGVPNGIPAEDSEQLASGQEAGDPGSLKPLHEKDSESGGGKD

Biological target: T1, Aggregatibacter actinomycetemcomitans …
Experiment: SPR

Row | Binder | Ka | Kd | koff | kon
1 | CKALIHLSDLREYRRFEKEKLKSQWNN [β2N2 peptide (longer N-terminal part of the β2 cytoplasmic tail, with WNN)] | 1.1e+08 M⁻¹ | 9.4 nM | 0.00013 s⁻¹ | 14000 M⁻¹ s⁻¹
2 | CKLLITIHDRKEFAKFEEERARAKWDTANNPLYKEATSTFTNITYRGT [β3 cytoplasmic tail peptide (integrin β3)] | 4.4e+06 M⁻¹ | 230 nM | 0.0059 s⁻¹ | 26000 M⁻¹ s⁻¹
3 | CKVGFFKRNLKEKMEAGRGVPNGI [αLN peptide (N-terminal, membrane-proximal part of the αL cytoplasmic tail)] | 6.6e+07 M⁻¹ | 16 nM | 0.00013 s⁻¹ | 8400 M⁻¹ s⁻¹
4 | CKLGFFKRQYKDMMSEGGSPGAEPQ [αM cytoplasmic tail peptide (integrin αM)] | 2.5e+06 M⁻¹ | 400 nM | 0.011 s⁻¹ | 28000 M⁻¹ s⁻¹
5 | CGQEAGDPGSLKPLHEKDSESGGGKD [αLC peptide (C-terminal, membrane-distal part of the αL cytoplasmic tail)] | 370000 M⁻¹ | – | – | –
6 | CKALIHLSDLREYRRFEKEKLKSQ [β2N peptide (N-terminal part of the β2 cytoplasmic tail)] | 9.6e+06 M⁻¹ | 110 nM | 0.00063 s⁻¹ | 6100 M⁻¹ s⁻¹
7 | CKALIHLSDLREYRRFEKEKLKSQWNNDNPLFKSATTTVMNPKFAES [β2 cytoplasmic tail peptide (integrin β2, LFA-1 β subunit)] | 2.4e+08 M⁻¹ | 4.2 nM | 0.0001 s⁻¹ | 24000 M⁻¹ s⁻¹
8 | CKVGFFKRQYKEMMEEANGQIAPENGTQTPSPPSEK [αX cytoplasmic tail peptide (integrin αX)] | 5.7e+06 M⁻¹ | 180 nM | 0.022 s⁻¹ | 130000 M⁻¹ s⁻¹
9 | CLKSQWNNDNPLFKSATTTVMNPKFAES [β2C peptide (C-terminal part of the β2 cytoplasmic tail)] | 2e+07 M⁻¹ | 51 nM | 0.00031 s⁻¹ | 6100 M⁻¹ s⁻¹
10 | B1 | 6.9e+07 M⁻¹ | 15 nM | 0.00012 s⁻¹ | 8500 M⁻¹ s⁻¹
